In the supplement of paper PMC11246515:
± gives the standard deviation of the averaged measurements.

Assay: total protein half-life in vivo (active degradation + dilution); higher = more stable protein
[1] = E. coli NCM3722 delta-clpP delta-lon delta-hslV, growth: N-lim chemostat, doubling time 6 h
[2] = wild type E. coli NCM3722, growth: C-lim chemostat, doubling time 12 h
[3] = E. coli NCM3722 delta-clpP, growth: N-lim chemostat, doubling time 6 h
[4] = wild type E. coli NCM3722, growth: C-lim chemostat, doubling time 3 h
[5] = wild type E. coli NCM3722, growth: C-lim chemostat, doubling time 6 h
[6] = wild type E. coli NCM3722, growth: P-lim chemostat, doubling time 12 h
[7] = E. coli NCM3722 delta-hslV, growth: N-lim chemostat, doubling time 6 h
[8] = E. coli NCM3722 delta-lon, growth: N-lim chemostat, doubling time 6 h
[9] = E. coli NCM3722 delta-smpB, growth: N-lim chemostat, doubling time 6 h
[10] = wild type E. coli NCM3722, growth: N-lim chemostat, doubling time 6 h
[11] = wild type E. coli NCM3722, growth: N-lim chemostat, doubling time 12 h
[12] = wild type E. coli NCM3722, growth: P-lim chemostat, doubling time 6 h

Substance | total protein half-life in vivo [1] [h] | total protein half-life in vivo [2] [h] | total protein half-life in vivo [3] [h] | total protein half-life in vivo [4] [h] | total protein half-life in vivo [5] [h] | total protein half-life in vivo [6] [h] | total protein half-life in vivo [7] [h] | total protein half-life in vivo [8] [h] | total protein half-life in vivo [9] [h] | total protein half-life in vivo [10] [h] | total protein half-life in vivo [11] [h] | total protein half-life in vivo [12] [h]
MKTSRLPIAIQQAVMRRLREKLAQANLKLGRNYPEPKLSYTQRGTSAGTAWLESYEIRLNPVLLLENSEAFIEEVVPHELAHLLVWKHFGRVAPHGKEWKWMMENVLGVPARRTHQFELQSVRRNTFPYRCKCQEHQLTVRRHNRVVRGEAVYRCVHCGEQLVAK | 4.81 ± 0.12 | 5.52 | – | – | – | – | – | – | – | – | – | –
MKQEVILVLDCGATNVRAIAVNRQGKIVARASTPNASDIAMENNTWHQWSLDAILQRFADCCRQINSELTECHIRGIAVTTFGVDGALVDKQGNLLYPIISWKCPRTAAVMDNIERLISAQRLQAISGVGAFSFNTLYKLVWLKENHPQLLERAHAWLFISSLINHRLTGEFTTDITMAGTSQMLDIQQRDFSPQILQATGIPRRLFPRLVEAGEQIGTLQNSAAAMLGLPVGIPVISAGHDTQFALFGAGAEQNEPVLSSGTWEILMVRSAQVDTSLLSQYAGSTCELDSQAGLYNPGMQWLASGVLEWVRKLFWTAETPWQMLIEEARLIAPGADGVKMQCDLLSCQNAGWQGVTLNTTRGHFYRAALEGLTAQLQRNLQMLEKIGHFKASELLLVGGGSRNTLWNQIKANMLDIPVKVLDDAETTVAGAALFGWYGVGEFNSPEEARAQIHYQYRYFYPQTEPEFIEEV | 5.11 | 1.49 | 3.99 ± 0.14 | 0.905 ± 0.18 | 2.56 | – | – | – | – | – | – | –
MITNTKLDPIETASVDELQALQTQRLKWTLKHAYENVPMYRRKFDAAGVHPDDFRELSDLRKFPCTTKQDLRDNYPFDTFAVPMEQVVRIHASSGTTGKPTVVGYTQNDIDNWANIVARSLRAAGGSPKDKIHVAYGYGLFTGGLGAHYGAERLGATVIPMSGGQTEKQAQLIRDFQPDMIMVTPSYCLNLIEELERQLGGDASGCSLRVGVFGAEPWTQAMRKEIERRLGITALDIYGLSEVMGPGVAMECLETTDGPTIWEDHFYPEIVNPHDGTPLADGEHGELLFTTLTKEALPVIRYRTRDLTRLLPGTARTMRRMDRISGRSDDMLIIRGVNVFPSQLEEEIVKFEHLSPHYQLEVNRRGHLDSLSVKVELKESSLTLTHEQRCQVCHQLRHRIKSMVGISTDVMIVNCGSIPRSEGKACRVFDLRNIVGA | 4.99 ± 0.39 | 1.21 ± 0.14 | – | 0.692 ± 0.075 | 0.955 ± 0.08 | 0.624 | – | – | – | – | – | –
MSKCSADETPVCCCMDVGTIMDNSDCTASYSRVFANRAEAEQTLAALTEKARSVESEPCKITPTFTEESDGVRLDIDFTFACEAEMLIFQLGLR [P0AD33] | 5.299 ± 0.023 | 8.27 ± 4.1 | – | 2.3 ± 0.11 | 4.14 ± 0.23 | 8.88 ± 0.45 | 2.32 ± 0.13 | 2.77 ± 0.89 | 2.37 ± 0.099 | 2.09 ± 0.35 | 3.61 ± 0.46 | 5.25 ± 0.11
MNIKIAALTLAIASGISAQWAIAADMPASPAPTIPVKQYVTQVNADNSVTFRYFAPGAKNVSVVVGVPVPDNIHPMTKDEAGVWSWRTPILKGNLYEYFFNVDGVRSIDTGTAMTNPQRQVNSSMILVPGSYLDTRSVAHGDLIAITYHSNALQSERQMYVWTPPGYTGMGEPLPVLYFYHGFGDTGRSAIDQGRIPQIMDNLLAEGKIKPMLVVIPDTETDAKGIIPEDFVPQERRKVFYPLNAKAADRELMNDIIPLISKRFNVRKDADGRALAGLSQGGYQALVSGMNHLESFGWLATFSGVTTTTVPDEGVAARLNDPAAINQQLRNFTVVVGDKDVVTGKDIAGLKTELEQKKINFDYQEYPGLNHEMDVWRPAYAAFVQKLFK | 4.45 | – | – | – | – | – | – | – | 3.45 ± 0.76 | – | – | –
MKCKRLNEVIELLQPAWQKEPDLNLLQFLQKLAKESGFDGELADLTDDILIYHLKMRDSAKDAVIPGLQKDYEEDFKTALLRARGVIKE [P0ADP9] | 6.97 ± 1.2 | 7.3 ± 1.9 | 4.97 ± 0.93 | – | 4.76 ± 0.47 | 11.2 ± 0.38 | 3.81 ± 0.33 | 3.98 ± 0.12 | 3.12 ± 0.3 | 2.74 ± 0.051 | 8.19 ± 5.8 | 5.01 ± 1.1
MKISPSLMCMDLLKFKEQIEFIDSHADYFHIDIMDGHFVPNLTLSPFFVSQVKKLATKPLDCHLMVTRPQDYIAQLARAGADFITLHPETINGQAFRLIDEIRRHDMKVGLILNPETPVEAMKYYIHKADKITVMTVDPGFAGQPFIPEMLDKLAELKAWREREGLEYEIEVDGSCNQATYEKLMAAGADVFIVGTSGLFNHAENIDEAWRIMTAQILAAKSEVQPHAKTA | – | – | – | 0.597 | – | – | – | – | – | – | – | –
P77704 | 6.54 ± 0.9 | – | – | – | – | – | 1.5 | 2.26 | 1.31 | 1.53 ± 0.3 | 2.2 | –
MVKTQRVVITPGEPAGIGPDLVVQLAQREWPVELVVCADATLLTNRAAMLGLPLTLRPYSPNSPAQPQTAGTLTLLPVALRAPVTAGQLAVENGHYVVETLARACDGCLNGEFAALITGPVHKGVINDAGIPFTGHTEFFEERSQAKKVVMMLATEELRVALATTHLPLRDIADAITPALLHEVIAILHHDLRTKFGIAEPRILVCGLNPHAGEGGHMGTEEIDTIIPVLNELRAQGMKLNGPLPADTLFQPKYLDNADAVLAMYHDQGLPVLKYQGFGRGVNITLGLPFIRTSVDHGTALELAGRGKADVGSFITALNLAIKMIVNTQ | 4.27 | 9.78 ± 0.65 | 3.54 | 2.98 ± 0.15 | 5.541 ± 0.046 | 9.91 ± 0.5 | 3.58 | 4.45 ± 0.1 | 4.72 ± 0.25 | 4.33 | 7.247 ± 0.038 | 4.67 ± 0.49
MNNIQLAHGSGGQAMQQLINSLFMEAFANPWLAEQEDQARLDLAQLVAEGDRLAFSTDSYVIDPLFFPGGNIGKLAICGTANDVAVSGAIPRYLSCGFILEEGLPMETLKAVVTSMAETARAAGIAIVTGDTKVVQRGAVDKLFINTAGMGAIPANIHWGAQTLTAGDVLLVSGTLGDHGATILNLREQLGLDGELVSDCAVLTPLIQTLRDIPGVKALRDATRGGVNAVVHEFAAACGCGIELSEAALPVKPAVRGVCELLGLDALNFANEGKLVIAVERNAAEQVLAALHSHPLGKDAALIGEVVERKGVRLAGLYGVKRTLDLPHAEPLPRIC | 3.91 ± 0.43 | 9.14 ± 0.81 | 3.16 ± 0.4 | 2.96 ± 0.3 | – | 9.482 ± 0.012 | 3.27 ± 0.042 | 3.76 ± 0.14 | 3.59 ± 0.38 | 3.28 ± 0.28 | 4.8 ± 0.18 | 4.98 ± 0.13
